According to patent US20230287402A1:

Molecular target: GFP-60mer nanocages
Experiment: absorbance at 490 nm and 570 nm of the complex purified by size exclusion chromatography

ratio GFP/mScarlet in the purified complex: 0.95
Substance: GBP-mScarlet, purified fusion of the anti-GFP nanobody and mScarlet (VHH)
